Experimental data published in patent US20260227403A1 (HENRY M JACKSON FOUNDATION FOR THE ADVANCEMENT OF MILITARY …, published 2026).

Legend:
[1] = target: T1, P49; assay: ELISA: 1 µg peptide coated per well, 29E4 at 20 ng/mL, HRP goat anti-rabbit Ig 1:16,000, ABS 450 nm, duplicates [CONT. 1]
T1 construct: C-terminal truncation of P1
T1 peptide: QRQMSEPNIPFPPQ

[2] = target: T2, P36; assay: as above
T2 construct: C-terminal truncation of P1
T2 peptide: QRQMSEPNIPFPPQGFKQE

[3] = target: T3, P37; assay: as above
T3 construct: C-terminal truncation of P1
T3 peptide: QRQMSEPNIPFPPQGFKQ

[4] = target: T4, overlapping peptide P4 (12 amino acids, FIG. 3 panel A) (human); assay: ELISA: 500 ng peptide coated per well, 29E4 titrated 0-1000 ng/mL, HRP goat anti-rabbit Ig 1:16,000, ABS 450 nm, duplicates
T4 peptide: PNIPFPPQGFKQ
Excerpt: (§1) HRP Goat anti-rabbit Ig was applied at 1:16,000 dilution in all reactions.
(§2) Peptides were synthesized to achieve ≥70% HPLC purity by a commercial vendor (GenScript Biotech, Piscataway, NJ). Peptides were reconstituted in either water, or with addition of acetonitrile, methanol, 10% acetic acid, or DMSO, depending on the overall charge of each peptide. Key residues required for mAb binding were probed by ELISA using overlapping peptides, truncated peptides and alanine substituted peptides. Reactions were performed in duplicate using NUNC 96-well flatbottom MaxiSorp plates (Thermo Scientific). After coating each well with 500 ng of peptide in 100 μL coating buffer (50 mM NaHCO₃, pH 9.6), the plates were sealed and incubated at 4° C. overnight. […] Plates were then washed once with wash buffer, incubated with 100 μL mAb 29E4 (serially diluted from 1 mg/mL) for 1 hour at 37° C. Plates were further washed four times with wash buffer, and then incubated at 37° C. with 100 μL of a horse radish peroxidase (HRP)-conjugated secondary antibody against the primary antibody, diluted 1:16,000 according to manufacturer's protocols (KPL, Inc., Gaithersburg, MD). After washing four times with wash buffer, 100 μL of K-Blue Aqueous TMB substrate (Neogen, Lexington, KY) was added to the plates and incubated uncovered for 30 minutes at room temperature. To stop the reaction, 100 μL of 2 N Sulphuric acid was added to each well and absorbance were measured immediately at 450 nm. All dilutions of reagents were performed in ELISA diluent (20% NGS in 1×PBS with 0.1% Triton-X 100).

[5] = target: T5, overlapping peptide P6 (12 amino acids, FIG. 3 panel A) (human); assay: as above
T5 construct: The overlapping 12-mer is meant here
T5 peptide: PQGFKQEYHDPV
Excerpt: as §1, §2

[6] = target: T6, overlapping peptide P5 (12 amino acids, FIG. 3 panel A) (human); assay: as above
T6 construct: The overlapping 12-mer is meant here
T6 peptide: PFPPQGFKQEYH
Excerpt: as §1, §2

[7] = target: T7, overlapping peptide P3 (12 amino acids, FIG. 3 panel A) (human); assay: as above
T7 construct: The overlapping 12-mer is meant here
T7 peptide: MSEPNIPFPPQG
Excerpt: as §1, §2

[8] = target: T8, ETV1 immunogenic peptide P1 (human); assay: as above
T8 construct: 27 amino acid peptide, ETV1 residues 212-238; also called immunogen peptide; ETV1 P1 peptide
Excerpt: as §1, §2

[9] = target: T9, overlapping peptide P7 (12 amino acids, FIG. 3 panel A) (human); assay: as above
T9 construct: The overlapping 12-mer is meant here
T9 peptide: FKQEYHDPVYEH
Excerpt: as §1, §2

[10] = target: T10, FLAG-SPDEF (NM_012391) (UniProt O95238 1-335); assay: immunoblot of cell lysates (HEK-293 2 µg per lane) probed with 29E4; the protein is shown present in panels D and F
T10 construct: Expressed in HEK-293 cells and tested as cell lysate on an immunoblot; also called SAM pointed domain-containing ETS transcription factor; not shown: FLAG tag
T10 sequence (looked up): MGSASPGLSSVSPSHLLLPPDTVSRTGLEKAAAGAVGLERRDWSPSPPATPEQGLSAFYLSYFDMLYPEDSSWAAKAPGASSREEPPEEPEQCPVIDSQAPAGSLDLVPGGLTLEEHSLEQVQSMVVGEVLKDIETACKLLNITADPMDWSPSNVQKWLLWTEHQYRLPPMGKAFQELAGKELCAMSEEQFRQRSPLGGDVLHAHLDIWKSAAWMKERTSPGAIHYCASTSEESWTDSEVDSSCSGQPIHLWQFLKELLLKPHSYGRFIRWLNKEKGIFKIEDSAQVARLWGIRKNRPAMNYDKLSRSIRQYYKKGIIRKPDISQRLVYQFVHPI
Procedure: Immunoblots using antibodies against ETV1 (A and H), ETV4 (B), ERG (C), SPDEF (D), FLI1 (E), FLAG (F), and GAPDH (G), as a loading control. […] PC3 cells were transfected with 25 nM non-targeting (NT) siRNA or ETV-1 siRNA oligos (lanes 1 and 2, respectively). […] were infected with either a control vector (lane 10) or adenoviral vector expressing FLI1 (lanes 11).
Cell lysates were then cleared by centrifugation at 10,000×g for 15 minutes at 4° C. and transferred to fresh tubes. Protein concentration was measured using Protein Assay Reagent (Bio-Rad, Hercules, CA). […] Separated proteins were transferred onto PVDF membranes using a Trans-Blot SD semi-dry transfer cell (BioRad) at 25 V for 90 minutes. Membranes were blocked in blocking buffer (Tris buffered saline with 0.25% Tween 20 (TBST) containing 1% BSA) for one hour at room temperature before incubation with primary antibodies (1 ng/mL) for 12 hours at 4° C. Membranes were then washed with wash buffer (TBST) in three ten-minute washes before treatment with IRDye 680RD conjugated goat anti-rabbit or IRDye 800 RD conjugated goat anti-mouse secondary antibodies (LI-COR Biosciences, Lincoln, NE) for three hours at room temperature.

T8 sequence (peptide, as listed by the source): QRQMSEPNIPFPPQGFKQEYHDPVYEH

- binding result [1]: binds
- binding result [2]: binds
- binding result [3]: binds
- EC50 (read off the curve) [4]: ~0.1 µg/mL
- binding result [5]: no binding (tested: 1000 ng/mL)
- binding result [6]: binds
- binding result [7]: binds
- EC50 (read off the curve) [8]: ~0.02 µg/mL
- binding result [9]: no binding (tested: 1000 ng/mL)
- binding result [10]: no binding
B1: ETV1 rabbit monoclonal antibody (29E4) (antibody, V domains shown)
VH: QELEESGGDLVKPGASLTLTCTASGFFFSAENHICWVRQAPGKGLEWIGCVYIGSYVGGSGDPYYASWAKGRFTISKTSSTTVTLQMSSLTAADTATYFCARDLGSLWGPGTLVTVSS
VL: DVVMTQTASSVSAAVGGTVTIACQSSQSVYDNNNLAWFQQKPGQPPKRLIYSASTLASGVSSRFKGSGYGTQFTLTISDVQCDDAATYYCVGAFSGYIFVFGGGTEVVVK
notes: constant regions are not; also called 29E4 mAb; ETV1 29E4 mAb
